The target in the assay is T1, porcine CD163 with deletion of SRCR domain 5, on pPAMΔ5 cells (porcine, UniProt Q2VL90 47-1115).
T1 construct: also called pPAMΔ5 domain cells; pPAMΔ5 WT cells
T1 sequence: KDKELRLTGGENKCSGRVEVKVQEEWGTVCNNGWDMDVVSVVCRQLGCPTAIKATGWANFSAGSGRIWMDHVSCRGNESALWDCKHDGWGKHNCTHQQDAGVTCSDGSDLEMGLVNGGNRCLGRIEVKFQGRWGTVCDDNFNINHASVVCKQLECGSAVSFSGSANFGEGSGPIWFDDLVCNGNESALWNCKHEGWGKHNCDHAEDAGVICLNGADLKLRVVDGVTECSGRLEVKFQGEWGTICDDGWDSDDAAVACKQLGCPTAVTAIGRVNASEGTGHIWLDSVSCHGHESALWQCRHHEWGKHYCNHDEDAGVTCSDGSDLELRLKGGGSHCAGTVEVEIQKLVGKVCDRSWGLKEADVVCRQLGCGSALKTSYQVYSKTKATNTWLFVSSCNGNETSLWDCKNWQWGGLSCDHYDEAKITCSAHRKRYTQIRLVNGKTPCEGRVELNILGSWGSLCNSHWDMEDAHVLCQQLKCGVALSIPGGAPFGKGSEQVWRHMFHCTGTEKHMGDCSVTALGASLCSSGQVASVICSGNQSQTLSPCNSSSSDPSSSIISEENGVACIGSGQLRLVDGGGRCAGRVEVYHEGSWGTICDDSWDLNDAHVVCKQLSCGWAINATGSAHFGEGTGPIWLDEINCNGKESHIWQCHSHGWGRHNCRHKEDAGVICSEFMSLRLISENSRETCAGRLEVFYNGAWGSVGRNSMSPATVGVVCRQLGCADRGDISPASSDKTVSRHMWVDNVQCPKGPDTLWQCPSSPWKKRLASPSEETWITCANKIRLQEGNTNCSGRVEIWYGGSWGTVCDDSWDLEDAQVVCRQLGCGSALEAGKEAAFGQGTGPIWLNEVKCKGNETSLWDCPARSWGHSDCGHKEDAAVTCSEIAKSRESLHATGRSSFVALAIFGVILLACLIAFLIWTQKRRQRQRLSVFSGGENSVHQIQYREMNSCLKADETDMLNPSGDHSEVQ
In words: P.E. binding FACS on pPAMΔ5 cells. As to the method:
Periplasmic Extract (P.E) from the selected clones were incubated with anti-c-myc antibody (Roche; Cat. nr. 11667203001), specific to the c-myc tag present in the soluble VHH, for 30 minutes with agitation at room temperature (RT). The mix (P.E+anti-c-myc antibody) was added to the pPAM WT or pPAMΔ5 domain (cells with deletion of SRCR domain 5) and incubated for 60 min at 4° C. with gentle shaking.
Cells were washed 3× with 150 μl/well of FACS Buffer and incubated with 50 μl/well of the secondary antibody GAM-APC for 30 min at 4° C. and protected from the light, with shaking.

The values below come from US20260085129A1 (ECO ANIMAL HEALTH, published 2026).

B1: Clone 39-H17B11 VHH antibody (VHH)
VHH: QVQLVESGGGLVQAGGSLRLSCAASGRTFSSYAMGWFRQTPGKDREFVARIGWTGGTTIYADSVKGRFTISRDNAKNTVYLQMNSLKPEDTAVYYCAADQAGWRTAGVRNTYEYDYWGQGTQVTVSS
notes: Llama single domain antibody; also called clone 17B11; not shown: tags: c-myc tag on the soluble VHH in periplasmic extracts; FLAG and His tags on the purified VHH
B1: the binding result is on record as “no binding”.
